Legend:
[1] = Thermal stability: residual activity after incubation at 60° C. for one hour; assay type: biochemical; settings: crude recombinant enzyme; after incubation at 60° C. for 1 hour
Protocol: Thermal stability of the enzyme was investigated by measuring the activity of the enzyme after incubation at 60° C. for one hour and finding its relative activity supposing that the activity at 60° C. under the reaction conditions (10 minutes) used for determining the optimum temperature in the above 2 shown in Table 2 was 100. As heat treatment conditions, the crude enzyme solution, a buffer (50 mM tris-HCl, pH 7.5), and 2 mM MgCl2 were used to give a total amount of 200 p1 and after retaining at 60° C. for one hour, the reaction mixture was cooled for 10 minutes in ice water. The residual enzyme activity was then measured by the conventional method.
The activity of each of the present enzyme (crude recombinant enzyme) and the crude enzyme of the control enzyme after incubation at 60° C. for 1 hour was measured and a relative activity of it was determined supposing that the activity at 60° C. under the reaction conditions (10 minutes) for determining the optimum temperature in the above 2 shown in Table 2 is 100. The relative activity was used as a heat resistance index of the enzyme. As heat treatment conditions, the crude enzyme solution, a buffer (50 mM tris-HCl, pH 7.5), and 2 mM MgCl2 were used to give a total amount of 200 p1 and after retaining at 60° C. for one hour, the reaction mixture was cooled for 10 minutes in ice water. The residual enzyme activity was measured by the conventional method.

[2] = Ketose 3-epimerase activity ratio (T70/T50) at reaction temperature of 70° C. to 50° C.; assay type: biochemical; settings: crude recombinant enzyme; ratio of activity at 70° C. to activity at 50° C., 10 min reaction
Protocol: An enzyme having higher heat resistance than an amino acid substitution-free wild type enzyme can be obtained by introducing mutation into the gene of the ketose 3-epimerase of the present invention and substituting the corresponding amino acid residue with another amino acid residue by a site-directed mutagenesis operation to prepare various amino acid-substituted mutants. The heat resistance is evaluated by two indices, that is, a ketose 3-epimerase activity ratio (T70/T50) at the reaction temperatures of 70° C. to 50° C. and a residual activity after incubation at 60° C. for one hour.
Heat resistance of the present enzyme (crude recombinant enzyme) and the crude enzyme of the control enzyme was investigated by measuring an activity at 70° C. and an activity at 50° C. under the reaction conditions (10 minutes) used for determining the optimum temperature in the above 2 shown in Table 2 and finding their ratio (T70/T50).

| Molecule | Residual activity (%) [1] | T70/T50 [2] |
| --- | --- | --- |
| Ketose 3-epimerase mutant 7: amino acid-substituted mutant of SEQ ID NO: 1 (protein, Arthrobacter histidinolovorans) MKIGCHGLVWTGRFDAEGIRYSVQKTKEAGFDLIEFPLMDPFSFDVATAKSALAEHGLSVSASLGLSEATDVSSEDPAIVKAGEELLNRALDVLAELGATDFCGVIYSAMKKYMEPATEQGLSNSKAAVGRVVDRAAGLGINVSLEVVNRYETNVLNTGRQALSYLSDVKRPNLGVHLDTYHMNIEESDMFSPVLDTAEVLKYVHIGESHRGYLGTGSVDFDNFFKALGRIGYDGPVVFESFSSAVVAPDLSRMLGIWRNLWADNEELGAHANAFIRDKLTAIKTIELH | 83.1% | 2.03 |
| Ketose 3-epimerase mutant 11: amino acid-substituted mutant of SEQ ID NO: 1 (protein, Arthrobacter histidinolovorans) MKIGCHGLVWTGRFDAEGIRYSVQKTKEAGFDLIEFPLMDPFSFDVATAKSALAEHGLTASASLGLSEATDVSSEDPAIVKAGEELLNRALDVLAELGATDFCGVIYSAMKKYMEPATEQGLSNSKAAIGRVVDRAAGLGINVSLEVVNRYETNVLNTGRQALSYLSDVKRPNLGVHLDTYHMNIEESDMFSPVLDTAEALKYVHIGESHRGYLGTGSVDFDNFFKALGRIGYDGPVVFESFSSAVVAPDLSRMLGIWRNLWADNEELGAHANAFIRDKLTAIKTIELH | 68.6% | 1.95 |
| Ketose 3-epimerase mutant 13: amino acid-substituted mutant of SEQ ID NO: 1 (protein, Arthrobacter histidinolovorans) MKIGCHGLVWTGRFDAEGIRYSVQKTKEAGFDLIEFPLMDPFSFDVATAKSALAEHGLTASASLGLSEATDVSSEDPAIVKAGEELLNRALDVLAELGATDFCGVIYSAMKKYMEPATEQGLSNSKAAIGRVVDRAAGLGINVSLEVVNRYETNVLNTGRQALSYLSDVKRPNLGVHLDTYHMNIEESDMFSPVLDTAEVLKYVHIGESHRGYLGTGSVDFDNFFKALGRIGYDGPVVFESFSSAVVAPDLSRMLGIWRNLWADNEELGAHANAFIRDKLTAIKTIELH | 83.7% | 1.94 |
| Ketose 3-epimerase mutant 8: amino acid-substituted mutant of SEQ ID NO: 1 (protein, Arthrobacter histidinolovorans) MKIGCHGLVWTGRFDAEGIRYSVQKTKEAGFDLIEFPLMDPFSFDVATAKSALAEHGLTASASLGLSEATDVSSEDPAIVKAGEELLNRALDVLAELGATDFCGVIYSAMKKYMEPATEQGLSNSKAAIGRVVDRAAGLGINVSLEVVNRYETNVLNTGRQALSYLSDVKRPNLGVHLDTYHMNIEESDMFSPVLDTAEVLKYVHIGESHRGYLGTGNVDFDNFFKALGRIGYDGPVVFESFSSAVVAPDLSRMLGIWRNLWADNEELGAHANAFIRDKLTAIKTIELH | 115.3% | 2.03 |
| Ketose 3-epimerase mutant 16: amino acid-substituted mutant of SEQ ID NO: 1 (protein, Arthrobacter histidinolovorans) MKIGCHGLVWTGRFDAEGIRYSVQKTKEAGFDLIEFPLMDPFSFDVATAKSALAEHGLSVSASLGLSEATDVSSEDPAIVKAGEELLNRALDVLAELGATEFCGVIYSAMKKYMEPATEQGLSNSKAAIGRVVDRAAGLGINVSLEVVNRYETNVLNTGRQALSYLSDVKRPNLGVHLDTYHMNIEESDMFSPVLDTAEALKYVHIGESHRGYLGTGSVDFDNFFKALGRIGYDGPVVFESFSSAVVAPDLSRMLGIWRNLWADNEELGAHANAFIRDKLTAIKTIELH | 54.0% | 1.89 |
| Ketose 3-epimerase mutant 9: amino acid-substituted mutant of SEQ ID NO: 1 (protein, Arthrobacter histidinolovorans) MKIGCHGLVWTGRFDAEGIRYSVQKTKEAGFDLIEFPLMDPFSFDVATAKSALAEHGLSVSASLGLSEATDVSSEDPAIVKAGEELLNRALDVLAELGATDFCGVIYSAMKKYMEPATEQGLSNSKAAVGRVVDRAAGLGINVSLEVVNRYETNVLNTGRQALSYLSDVKRPNLGVHLDTYHMNIEESDMFSPVLDTAEALKYVHIGESHRGYLGTGSVDFDNFFKALGRIGYDGPVVFESFSSAVVAPDLSRMLGIWRNLWADNEELGAHANAFIRDKLTAIKTIELH | 65.6% | 2.01 |
| Ketose 3-epimerase mutant 10: amino acid-substituted mutant of SEQ ID NO: 1 (protein, Arthrobacter histidinolovorans) MKIGCHGLVWTGRFDAEGIRYSVQKTKEAGFDLIEFPLMDPFSFDVATAKSALAEHGLSVSASLGLSEATDVSSEDPAIVKAGEELLNRALDVLAELGATDFCGVIYSAMKKYMEPATEQGLSNSKAAVGRVVDRAAGLGINVSLEVVNRYETNVLNTGRQALSYLSDVKRPNLGVHLDTYHMNIEESDMFSPVLDTAEALKYVHIGESHRGYLGTGNVDFDNFFKALGRIGYDGPVVFESFSSAVVAPDLSRMLGIWRNLWADNEELGAHANAFIRDKLTAIKTIELH | 79.5% | 1.98 |
| Ketose 3-epimerase mutant 14: amino acid-substituted mutant of SEQ ID NO: 1 (protein, Arthrobacter histidinolovorans) MKIGCHGLVWTGRFDAEGIRYSVQKTKEAGFDLIEFPLMDPFSFDVATAKSALAEHGLTASASLGLSEATDVSSEDPAIVKAGEELLNRALDVLAELGATDFCGVIYSAMKKYMEPATEQGLSNSKAAVGRVVDRAAGLGINVSLEVVNRYETNVLNTGRQALSYLSDVKRPNLGVHLDTYHMNIEESDMFSPVLDTAEVLKYVHIGESHRGYLGTGSVDFDNFFKALGRIGYDGPVVFESFSSAVVAPDLSRMLGIWRNLWADNEELGAHANAFIRDKLTAIKTIELH | 79.1% | 1.91 |
| Ketose 3-epimerase mutant 12: amino acid-substituted mutant of SEQ ID NO: 1 (protein, Arthrobacter histidinolovorans) MKIGCHGLVWTGRFDAEGIRYSVQKTKEAGFDLIEFPLMDPFSFDVATAKSALAEHGLTASASLGLSEATDVSSEDPAIVKAGEELLNRALDVLAELGATDFCGVIYSAMKKYMEPATEQGLSNSKAAIGRVVDRAAGLGINVSLEVVNRYETNVLNTGRQALSYLSDVKRPNLGVHLDTYHMNIEESDMFSPVLDTAEALKYVHIGESHRGYLGTGNVDFDNFFKALGRIGYDGPVVFESFSSAVVAPDLSRMLGIWRNLWADNEELGAHANAFIRDKLTAIKTIELH | 90.5% | 1.94 |
| Ketose 3-epimerase mutant 15: amino acid-substituted mutant of SEQ ID NO: 1 (protein, Arthrobacter histidinolovorans) MKIGCHGLVWTGRFDAEGIRYSVQKTKEAGFDLIEFPLMDPFSFDVATAKSALAEHGLSVSASLGLSEATDVSSEDPAIVKAGEELLNRALDVLAELGATEFCGVIYSAMKKYMEPATEQGLSNSKAAVGRVVDRAAGLGINVSLEVVNRYETNVLNTGRQALSYLSDVKRPNLGVHLDTYHMNIEESDMFSPVLDTAEVLKYVHIGESHRGYLGTGSVDFDNFFKALGRIGYDGPVVFESFSSAVVAPDLSRMLGIWRNLWADNEELGAHANAFIRDKLTAIKTIELH | 89.3% | 1.90 |
| Ketose 3-epimerase mutant 17: amino acid-substituted mutant of SEQ ID NO: 1 (protein, Arthrobacter histidinolovorans) MKIGCHGLVWTGRFDAEGIRYSVQKTKEAGFDLIEFPLMDPFSFDVATAKSALAEHGLTASASLGLSEATDVSSEDPAIVKAGEELLNRALDVLAELGATEFCGVIYSAMKKYMEPATEQGLSNSKAAVGRVVDRAAGLGINVSLEVVNRYETNVLNTGRQALSYLSDVKRPNLGVHLDTYHMNIEESDMFSPVLDTAEVLKYVHIGESHRGYLGTGSVDFDNFFKALGRIGYDGPVVFESFSSAVVAPDLSRMLGIWRNLWADNEELGAHANAFIRDKLTAIKTIELH | 62.3% | 1.89 |
